Measured values taken from patent publication US20140179612A1.

Molecular target: αVβ3 integrin receptor on choroid endothelial cells (RF/6A)
Assay: cell-based or functional assay

## transferrin-tumstatin protein (recombinant fusion, secreted from ARPE cells, histidine tagged) (from UniProt P02787 20-698; Q01955 1426-1670)
  IC50, MTT assay of RF/6A choroid endothelial cell proliferation induced by VEGF 165 (50 ng/ml): 5.97 nM
  inhibition of RF/6A cell proliferation at 15.6 nM (MTT assay): 84%

## tumstatin protein (recombinant, secreted from ARPE cells, histidine tagged) (from UniProt Q01955 1426-1670) (ligand)
  IC50, MTT assay of RF/6A choroid endothelial cell proliferation induced by VEGF 165 (50 ng/ml): 186 nM
